Assay: label from the status in PepcDB records
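Note: failed if final PepcDB status was selected cloned or expressed and not failed if soluble or beyond.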

| Sequence | protein production |
| --- | --- |
| MSNYEKVYIGTYTNGESRGIYSFNIISDSRKTTAPILSCEIENPTYLTFNMNNKTAYSVIKSGNLGGAASFYVDDRNNHLELLNCKFGYENPPERFSGKQPCYVSLDKTNSYLFSVNYHTSRVDVFPIRNDGSIDTVSSFVIHEGFGPNKERQETSHVHCAVTTPLNDFLCVVDLGTDKIVLYRFDDGILCRFNEFKLKPGCGPRHIIFHPNGKIAYIATELSSEVIVLKYSPLDGSFEELQYVSCLPTDYTGKNGSAAIHISRNSNYLYVSNRGHNSISCFHVDNSTGLLTLNSNTSTYGLSPRDFDLSSSGNLLIAANQDSSNLTIFSVDQVSGNLSKITSDIYVPNPVCVKFYHDKLEHHHHHH | failed |
| RTVAQNASETTVSYDTDTAVLSEADVLRIALSENATVKVADMDVRKQEYARRAARADLFPKVDLNGVYSHTLKKQVLYIDMPGFSSSEGIEMGRTHNTQGGVNVSMPLVSAQLWKSIAMTGEQLDLALEKARSSRIDLVAEVKKAYLSVLLAEDSYGVFKRSYDNALANYKNISDKFDRGLVAEYDKIRANVQVRNIEPNLLQAQNSVALALWQLKVLMSMEVETPIRLSGSLSDYKEQVYTGYFAADTLISNNSSLRQLDIQRRLAVSADKLNKYSFLPTLNLGGQYTYSLNSNDIKFWGEGQR | not failed |
| MSTILSLAPQNVWKHFYSLTQVPRPSGYLKKVQEFLLNFGKSVGVESFQDEAGNIIYRKPATPGMENRKKVILQAHMDMVPQKNNDTVHDFENDPIETYIDGDWVKAKGTTLGADDGMGVAAIMAIMEDKTLKHGPLEALITADEETGMFGAFGLKPGTVDGDILLNLDSEEEGELYIGCAGGEDLTAVLEYKEVETDPADIALKVTLKGLRGGHSGLEINEGRANANKLMARFMNQVITYDEACLVSWQGGNMRNAIPRECEVVITVPAEEEADVLEFVQECEALWNEEYHVHETPISFKAERVELPAMMVPDEIKDNLVDAIYACQNGVMRMIPTIPDTVETSSNLAIVSIGGGKAEIKILARSSRDSMKDYLNTALESCFSMAGMEVTRSGGYSGWEPNVDSPILKAMKESYKAQFGTEPAVKVIHAGLECGIIGAVVPGLDMISFGPTLRSPHSPDERCFIPSVGKFYDFVVATLENTPVKE | failed |
| MTRYALLVRGINVGGKNKVVMAELRQELTNLGLEKVESYINSGNIFFTSIDSKAQLVEKLETFFAVHYPFIQSFSLLSLEDFEAELENLPAWWSRDLARKDFLFYTEGLDVDQVIATVESLELKDEVLYFGKLGIFWGKFSEESYSKTAYHKYLLKVPFYRHITIRNAKTFDKIGQMLKK | not failed |
| MSDAEQPAESETHDHHDHDHEGPGYATPQAAIEAAEPEQTAYVMGLHVGQDVDAPDFLAVVDLDPDSDTYSEIINRVQMPNKGDELHHFGWNACSSSCHMDGLERRHLVIPGQRSSRIHIVDTKERRDPELTKVIEPEEVYEHDLSAPHTVHCIPDGEILISMLGDADGDLPGGFLELNDDFEVQGRWDPPGEIEMNYDYWYQPRQNVMLSTEWAAPKTYYPGFDLDDVEDGKYGQRLNFWDWEDGVIEQTIDLGEDGLIPLEARFLHTPESTHGYVGAALSSNIIHFHESDGRYHAEPVIEFDDREHEGWDMPVPALVTDILISMDDRYLFGSSWLHGEVWMYDISDPSNPRKADSISIGGYFGDIEQVQGRDIVAGPQMLQLSLDGERLYWTTSLFSSWDNQFFPEEAEKGSVMLKADVDPRTGTMSLDRDFLVDFGDLPEGPARAHEIRWPDGDCTSDVWQ | failed |
| MIQEKHLTFTINLLVSLFFLTILIIPKGYNYAPIILSAIGLIYFIPLKKKLSFSSEDKKLIFSFLFYFFTFLLSIIINKDGIREIDNPSRLLLFIPLLLLFKNFPIKRKTILYAIPSSALITGCVALFQKFALGYEKPFPETMHIQMGNIAISLATFSIVITLHFFIKKQYKSTLFGFVAIILAIMTSALSGARGGWIGLPVVVGIILFLYKEFINKKLIITLIAIITIGLTALITSPKFGIEKRYNAAKSDIVSYLEKNNRNTSLGARFDMWENALIAIKEAPIFGHGSDGYDEFRHKQVKSKQMAKTTLNFGSLHNQYLESWVKRGLVGFIALILIILTPIFYFIKNLNTHNLETKCICILGIIHIVSHIFYFTSQSFLAHNSGNIFYFSAMLCFIV | failed |
| MSKVLVLKSSILAGYSQSGQLTDYFIEQWREKHVADEITVRDLAANPVPVLDGELVGAMRPGDAPLTPRQQDALALSDELIAELKAHDVIVIAAPMYNFNIPTQLKNYFDLIARAGITFRYTEKGPEGLVTGKRAVVLSSRGGIHKDTPTDLIAPYLKVFLGFIGITDVNFVFAEGIAYGPEVAAKAQADAKAAIDSVVAA | not failed |

From a protein production outcome set (Wang et al. 2014)
